# According to article PMC8962251 (2022):
# Molecular target: SARS-CoV (2002) S1S2-His trimer (SARS-CoV (2002))
# Experiment: SPR
binder,measurement,value
HDFWWEYDKKNDTWTRRRR (designed binder) [CVRBDL-3_3],Kd,~41 mM
